The values that follow come from patent US6399759B1, “Ant proteases and methods of inhibition” (University of Georgia Research Foundation, Inc., priority 1999, dated 2002).

What all share (test): Inhibition of amidolytic activity by naturally occurring protease inhibitors
What all share (conditions): 10 minutes incubation at 25° C. in 50 mM Tris-HCl, 100 mM NaCl, pH 7.4

Test [1] relates to Soli E1. It is filed as biochemical, Solenopsis invicta. The method, then: (§1) Enzyme Assay—Generally, the amidolytic activities of each proteinase were measured with the substrates MeOSuc-Ala-Ala-Pro-Val-pNA (SEQ ID NO:8) and N-Suc-Ala-Ala-Pro-Phe-pNA (SEQ ID NO:7) in 0.05 M Tris-HCl and 100 mM NaCl pH 7.4 (assay buffer). Release of the pNA group was assayed by monitoring the optical density of the test solution at […]. Enzyme inhibition assays by protein inhibitors were conducted in the same assay buffer using an inhibitor concentration ranging from 0.02-50 nM with a 10 minute preincubation time and with the final enzyme concentration being 1.0 nM. All kinetic studies with substrates and inhibitors were performed at the optimum pH of the individual proteinases, utilizing the following buffers: 150 mM NaCl, 50 mM Tris-HCl pH 8.0 (E1); 150 mM NaCl, 50 mM CHES pH 9.5 (E2 and C2); and 150 mM NaCl, 50 mM CAPS pH 10.0 (C1).

In test [2] the test system is Soli C2. It is filed as biochemical, Solenopsis invicta. The method, then: as §1
Test [3] has as its system Soli E2. It is filed as biochemical, Solenopsis invicta. The method, then: as §1
The target in test [4] is T1, Soli C1 (Solenopsis invicta, UniProt Q7SIG2).
T1 construct: Fourth instar larvae were extracted in a 1:10 (weight/volume) ratio of 20 mM Tris-HCl pH 7.4; from tissue; host or cells: whole Solenopsis invicta 4th instar larvae (buffer extract, acetone precipitation, Q Sepharose peak III, Mono Q, Superdex 75)
T1 sequence (Q7SIG2 whole entry): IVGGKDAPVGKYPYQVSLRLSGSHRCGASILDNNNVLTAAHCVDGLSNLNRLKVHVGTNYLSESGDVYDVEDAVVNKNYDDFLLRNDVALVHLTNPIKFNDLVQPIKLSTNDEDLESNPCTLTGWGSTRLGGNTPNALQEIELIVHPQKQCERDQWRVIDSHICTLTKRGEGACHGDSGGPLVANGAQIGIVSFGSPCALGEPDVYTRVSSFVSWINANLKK
The format is biochemical. The method, then: as §1

B1: Soy Bean Trypsin Inhibitor I-S: soybean trypsin inhibitor Type I-S from Sigma (protein)
chain: DFVLDNEGNPLENGGTYYILSDITAFGGIRAAPTGNERCPLTVVQSRNELDKGIGTIISSPYRIRFIAEGHPLSLKFDSFAVIMLCVGIPTEWSVVEDLPEGPAVKIGENKDAMDGWFRLERVSDDEFNNYKLVFCPQQAEDDKCGDIGISIDHDDGTRRLVVSKNKPLVVQFQKLDKESL
What is called IC50 is the concentration at which inhibition is half-maximal. On to B1, for which the IC50 in test [1] came to 4.22 nM; in test [2] it was 1.41 nM; in test [3], 5.58 nM; in test [4], 37 nM.

B2: Eglin C: naturally occurring protease inhibitor obtained from Ciba Geigy (protein)
chain: TEFGSELKSFPEVVGKTVDQAREYFTLHYPQYDVYFLPEGSPVTLDLRYNRVRVFYNPGTNVVNHVPHVG
Regarding B2, the IC50 amounted to 3.93 nM in test [1], 0.442 nM in test [2], 1.89 nM in test [3] and 1.24 nM in test [4].

B3: Lima Bean Trypsin Inhibitor: lima bean trypsin inhibitor from Sigma (protein)
chain: SGHHEHSTDXPSXSSKPCCXHCACTKSIPPQCRCTDLRLDSCHSACKSCICTLSIPAQCVCXXIXDFCYEPCKSSHSDDDNNN
modifications: not fully specified
Take B3: the “IC50 Soli C2” value in test [2] is listed as “active”. Also, the “IC50 Soli C1” value in test [4] is reported as “active”.
